We go through nine molecules from patent publication US20170101474A1 (FORMUREX, published 2017).

Where no end group is shown, it is not given here.

Test [1] concerns the target HER2 on MDA-MB-361 and ZR-75-1 cells (human) (UniProt P04626). Briefly: flow cytometry, FITC-labelled peptide 10 µM, ZR-75-1 cells (blank cells 3.2±0.4).
Test [2] concerns the target T1, HER2 recombinant human protein (human, UniProt P04626 23-652, limits assumed).
T1 construct: Covalently attached to a carboxymethylated dextran SPR chip by EDC/NHS; also called HER2 protein; human epidermal growth factor receptor 2
Briefly: SPR, HER2 immobilized, peptide as analyte, 1:1 model.
Description: Then, the chip was blocked by passing EA for 8 minutes at a rate of 10 μL/min. […] Triplicate determinations were done at each concentration. The bound surface was regenerated by sequential injections of 10 mM glycine in PBST (pH 2.5).
The sensorgrams from SPR were globally treated using Scrubber 2® software where all traces were zeroed, cropped, aligned, and referenced. Kinetic constants ka and kd were determined by global fitting analyses of the titration curves using the 1:1 Lagmurian interaction model taking into account the mass transport. The equilibrium dissociation constant (KD) was calculated from the kd/ka ratio.
Both kinetic constants ka and kd were determined by global fitting analyses of the titration curves using the 1:1 Lagmurian interaction model in software Scrubber.

For test [3], the target named is HER2 on MDA-MB-361 and ZR-75-1 cells (human) (UniProt P04626). Briefly: flow cytometry, FITC-labelled peptide 10 µM, MDA-MB-361 cells (blank cells 4.5±0.2).
For test [4], the target named is T2, EGFR on A431 and MDA-MB-468 cells (UniProt P00533 25-1210, limits assumed). Briefly: cell-based or functional assay.
Test [5] concerns the target T3, Recombinant human EGFR (human, UniProt P00533 25-645, limits assumed).
T3 construct: Immobilized by amine coupling on a carboxymethyl dextran SPR chip; also called epidermal growth factor receptor; surface-immobilized EGFR
Briefly: SPR, EGFR immobilized, peptide as analyte, 1:1 model.
Description: (§1) A carboxymethyl dextran gold sensor chip was activated by N-hydroxysuccinimide (NHS) and N-ethyl-N″-[3-(diethylamino)propyl] carbodiimide (EDC) at 25° C. using phosphate buffered saline pH 7.4 with 0.05% tween 20 as running buffer. […] Unreactive sites were blocked by flowing over the chip 1 M ethanolamine pH 8.5 at 10 μL/min for 8 minutes. […] The resulting sensograms were globally fitted using Scrubber2 software (BioLogic Software, Campbell, Australia) in a 1:1 binding model to determine the association rate (kₒₙ), dissociation rate (kd or koff), and dissociation constant KD.

For test [6], the target named is T4, Bovine serum albumin (bovine, UniProt P02769 25-607).
T4 construct: Immobilized control protein in SPR; also called BSA
Description: SPR, BSA immobilized, peptide as analyte.

Test [7] has as its target T3, Recombinant human EGFR. Briefly: SPR, EGFR immobilized.
Description: as §1
Test [8] deals with T2, EGFR on A431 and MDA-MB-468 cells. Briefly: confocal microscopy of cells incubated with FITC-labelled scrambled peptide for 30 min at 37 C.
Description: For binding/internalization studies, 5×10⁵ cells were seeded in cover slips in 6 well culture plates overnight. […] Cells were fixed with 4% paraformaldehyde and cover slips were mounted on slides which contain a drop of SlowFade®. Cells were then imaged with an inverted Leica. DMIRE2 fluorescence microscope (Leica Biosystems Richmond Inc., Richmond, USA) using a Yokogawa CSUX1 confocal scanner unit. […] Cells were then centrifuged at 500 g for 5 min. Supernatant was removed and cell pellets were re-suspended in FACS solution. The cell suspension was then analyzed on a Beckman Coulter flow cytometer and data were analyzed using the Cell Questpro. A total of 10000 events were collected monitoring FITC.
Test [9] deals with T3, Recombinant human EGFR. Description: SPR, EGFR immobilized on the chip, scrambled peptide Pep25 injected; concentrations not given.

T4 sequence (P02769 25-607 limits assumed): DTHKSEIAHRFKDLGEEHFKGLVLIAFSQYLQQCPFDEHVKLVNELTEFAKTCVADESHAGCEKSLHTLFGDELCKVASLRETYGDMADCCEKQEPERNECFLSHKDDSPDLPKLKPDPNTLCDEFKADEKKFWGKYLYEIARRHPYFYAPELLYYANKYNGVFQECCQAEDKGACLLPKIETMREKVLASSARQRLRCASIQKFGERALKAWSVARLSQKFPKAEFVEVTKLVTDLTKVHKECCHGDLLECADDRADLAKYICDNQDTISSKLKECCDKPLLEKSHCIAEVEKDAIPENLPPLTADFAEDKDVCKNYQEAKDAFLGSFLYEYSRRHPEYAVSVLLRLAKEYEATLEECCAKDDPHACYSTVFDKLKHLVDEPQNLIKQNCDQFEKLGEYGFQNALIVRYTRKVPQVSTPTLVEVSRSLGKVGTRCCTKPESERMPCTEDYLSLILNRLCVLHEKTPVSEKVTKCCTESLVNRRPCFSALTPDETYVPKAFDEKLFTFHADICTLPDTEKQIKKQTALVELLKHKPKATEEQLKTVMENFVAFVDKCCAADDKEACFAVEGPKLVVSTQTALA

B1: HER2-PEP22 (peptide)
peptide: TSPQGYPNDAGFLGRESTN
modifications: not fully specified
notes: Unlabelled in SPR; FITC-labelled in cell assays; also called control peptide; FITC-HER2-PEP22
Molecule B1 displayed an MFI in test [1] of 19.6 MFI. Moreover, in test [2], the Kd was 138000 nM, the koff was determined as 0.0181 s⁻¹ and the kon was 131 M⁻¹ s⁻¹. In test [3], this molecule gave an MFI of 22.1 MFI.

B2: Pep11 (peptide)
peptide: WSGENGPGFYDYEA
modifications: not fully specified
notes: Designed cetuximab mimic peptide for EGFR; Unlabelled in SPR; also called EGFR-PEP11; FITC-Pep11
In the case of B2, in [4], the “IC50 of cytotoxicity (sulforhodamine B assay, 72 h), A431 cells” value is 388 nM and the “IC50 of cytotoxicity (sulforhodamine B assay, 72 h), MDA-MB-468 cells” value amounted to 420 nM. In [5], the Kd is 252 nM, the koff is 0.0252 s⁻¹ and the kon worked out at 100000 M⁻¹ s⁻¹. In addition, in test [6], the binding result was “no binding”. In addition, in test [7], the “fold KD relative to cetuximab” value is roughly 50 fold.

B3: Pep11-auristatin E PDC (peptide)
peptide: WSGENGPGFYDYEA
modifications: also: auristatin E (as 5-benzoylpentanoic ester) joined through a maleimidocaproyl hydrazone linker to a free thiol of the peptide, thiol position not given here
For the molecule B3, in test [4], the “IC50 of cytotoxicity (sulforhodamine B assay, 72 h), A431 cells” value stood at 0.0026 nM and the “IC50 of cytotoxicity (sulforhodamine B assay, 72 h), MDA-MB-468 cells” value was 0.0013 nM.

B4: Pep22 (peptide)
peptide: WSGENGPGTFYDYEA
notes: also called EGFR-PEP22; No. 22
Turning to B4, in test [5], the Kd worked out at 595 nM, the koff was 0.0259 s⁻¹ and the kon stood at 43500 M⁻¹ s⁻¹. Further, in test [6], the binding result is recorded as “no binding”.

B5: HER2-PEP7 (peptide)
peptide: VGYDTGLRAPNSVGSTKQ
modifications: not fully specified
notes: Designed pertuzumab mimic peptide; Unlabelled in SPR; FITC-labelled in cell assays
Take B5: the Kd in [2] turned out to be 93 nM.

B6: Pep6 (peptide)
peptide: WSGENGPGYFDYEA
notes: Designed cetuximab mimic peptide for EGFR, made by synthesis; also called No. 6
As for B6, in test [5], the Kd was determined as 4800 nM, the koff stood at 0.00581 s⁻¹ and the kon stood at 1210 M⁻¹ s⁻¹. Moreover, the binding result in test [6] is given as “no binding”.

B7: Pep25 (peptide)
peptide: SGEWAYDGYEPNFG
modifications: also: FITC label in cell assays, position not given here
notes: Scrambled negative control; Unlabelled in SPR; FITC-conjugated in the cell assays; also called scrambled peptide; scrambled antibody mimic
Take B7: the binding result in test [8] and in test [9] was “no binding” in each case.

B8: Pep24 (peptide)
peptide: AEYDFYGPGNEGSW
notes: also called No. 24
As for B8, in test [5], the Kd was found to be 7200 nM, the koff was determined as 0.103 s⁻¹ and the association rate constant (kon) is 14300 M⁻¹ s⁻¹. Moreover, the binding result in test [6] was “no binding”.

B9: HER2-PEP21 (peptide)
peptide: PGNDTGLSRAPENSGFTYQ
modifications: not fully specified
notes: as for B5
As for B9, the Kd in test [2] was 56 nM.
